Measurements from US20190071490A1, “Preventing Post-Ictal Headaches” (Beth Israel Deaconess Medical Center, Inc., priority 2017, published 2019).

T1: human α-CGRP (Homo sapiens, UniProt P06881)
T1 construct: 1-37 (WT); purchased GenScript Corporation or Global Peptide Services
T1 sequence (P06881 83-119 limits assumed): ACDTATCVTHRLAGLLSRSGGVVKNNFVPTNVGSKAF

T2: rat α-CGRP (Rattus norvegicus, UniProt P01256)
T2 construct: rat α (1-37); purchased GenScript Corporation or Global Peptide Services
T2 sequence (P01256 83-119 limits assumed): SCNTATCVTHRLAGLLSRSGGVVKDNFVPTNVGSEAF


Tests used:
human α-CGRP = target: T1, human α-CGRP; assay: Biacore SPR affinity of Fab fragments to N-biotinylated human α-CGRP on SA chip; assay type: binding; conditions: 37° C., screening mode except underlined values
In short: (§1)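 HBS-EP pH 7.4 running buffer at 25° C. or 37° C.; N-biotinylated CGRP captured on streptavidin SA chip (<50 RU for kinetics), Fab titrated over surface with regeneration by 25 mM NaOH/25% ethanol. Titrations globally fit to 1:1 Langmuir model; KD=koff/kon, with 2-hour dissociation for very slow off-rates.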

rat α-CGRP = target: T2, rat α-CGRP; assay: Biacore SPR affinity of Fab fragments to N-biotinylated rat α-CGRP on SA chip; assay type: binding; conditions: 37° C., screening mode except underlined values
In short: as §1

α-human koff (human α-CGRP) [s⁻¹]	α-rat koff (rat α-CGRP) [s⁻¹]	Molecule
0.00021	0.00613	M44: G1 variant; L1 R28N; L2 G50A L56T; H2 E54K A57N S58E; HC-FW3 L99T A100V (antibody, V domains shown) VH: EVQLVESGGGLVQPGGSLRLSCAASGFTFSNYWISWVRQAPGKGLEWVAEIRSKSDNEATHYAEAVKGRFTISRDNAKNSLYLQMNSLRAEDTAVYYCTVYFDYGLAIQNYWGQGTLVTVSS VL: EIVLTQSPATLSLSPGERATLSCKASKNVTTYVSWYQQKPGQAPRLLIYAASNRYTGIPARFSGSGSGTDFTLTISSLEPEDFAVYYCSQSYNYPYTFGQGTKLEIK
0.000211	0.00558	M45: G1 variant; L1 R28N; L2 G50A L56T; H2 E54K A57N S58E E64D; HC-FW3 L99T A100V (antibody, V domains shown) VH: EVQLVESGGGLVQPGGSLRLSCAASGFTFSNYWISWVRQAPGKGLEWVAEIRSKSDNEATHYADAVKGRFTISRDNAKNSLYLQMNSLRAEDTAVYYCTVYFDYGLAIQNYWGQGTLVTVSS VL: EIVLTQSPATLSLSPGERATLSCKASKNVTTYVSWYQQKPGQAPRLLIYAASNRYTGIPARFSGSGSGTDFTLTISSLEPEDFAVYYCSQSYNYPYTFGQGTKLEIK
